Data on 2 molecules can be found in US20060171884A1 (Amgen, published 2006).

Assay [1] addresses native human Matriptase on cells (human) (UniProt Q9Y5Y6). Kind of assay: FACS on 22Rv1 cells, antibody at 1 µg/ml.
The target of assay [2] is Rhesus Macaque MTSP-1 on 4MBr5 cells (rhesus macaque) (UniProt H9ZCT3). As to the kind of experiment: FACS on 4MBr5 monkey lung epithelial cells, antibody at 1 µg/ml.
The target of assay [3] is T1, Matriptase (soluble enzyme, form not stated) (human, UniProt Q9Y5Y6 615-855, limits assumed).
T1 construct: also called Matriptase-1; MT-SP1
T1 sequence: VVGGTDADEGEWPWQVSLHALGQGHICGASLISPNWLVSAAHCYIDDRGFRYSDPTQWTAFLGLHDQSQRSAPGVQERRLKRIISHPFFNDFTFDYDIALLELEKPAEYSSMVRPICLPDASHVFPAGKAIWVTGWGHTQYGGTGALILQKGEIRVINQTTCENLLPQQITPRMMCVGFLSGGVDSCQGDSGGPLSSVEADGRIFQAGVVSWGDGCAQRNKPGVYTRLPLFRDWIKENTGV
As to the kind of experiment: competition ELISA: 125 ng/ml biotinylated MTSP1 pre-incubated 1 hour with titrated HAI-1, then transferred to a sc95/96 coated plate, bound MTSP detected with SA-pod; competitor: plate-coated sc95/96.

On to IgG1 irrelevant control antibody, for which the geomean (geomean fluorescence) in assay [1] and in assay [2] was 5 in each case.

B1: HAI-1 (soluble, as titrated in the competition assay) (other, UniProt O43278 36-465, looked up)
chain: GPPPAPPGLPAGADCLNSFTAGVPGFVLDTNASVSNGATFLESPTVRRGWDCVRACCTTQNCNLALVELQPDRGEDAIAACFLINCLYEQNFVCKFAPREGFINYLTREVYRSYRQLRTQGFGGSGIPKAWAGIDLKVQPQEPLVLKDVENTDWRLLRGDTDVRVERKDPNQVELWGLKEGTYLFQLTVTSSDHPEDTANVTVTVLSTKQTEDYCLASNKVGRCRGSFPRWYYDPTEQICKSFVYGGCLGNKNNYLREEECILACRGVQGGPLRGSSGAQATFPQGPSMERRHPVCSGTCQPTQFRCSNGCCIDSFLECDDTPNCPDASDEAACEKYTSGFDELQRIHFPSDKGHCVDLPDTGLCKESIPRWYYNPFSEHCARFTYGGCYGNKNNFEEEQQCLESCRGISKKDVFGLRREIPIPSTGSVE
B1: in assay [3], the “IC50 (read off the curve)” value was ~40 nM.
